Test results as given in patent US12043852.

Molecular target: omega-dCas9 clone 4 (evolved SpCas9) D10A,H840A,E1219V; residues I122 and D182 also mutated, substitutions not stated (Streptococcus pyogenes) (UniProt Q99ZW2)
Assay: cell_activity
Settings: E. coli activation

Question: With “GGAGCCCACCGAGUACCUGG / GGAGCCCACCGAGTACCTGGAGG / CCTCCAGGTACTCGGTGGGCTCC [Doench 2 sgRNA (spacer) ; Doench 2 target, AGG PAM]” as the sequence, how does the activity (luciferase activity) (PAM AGG) read?
Answer: 238

Question: With “GGAGCCCACCGAGUACCUGG / GGAGCCCACCGAGTACCTGGGAG / CTCCCAGGTACTCGGTGGGCTCC [Doench 2 sgRNA (spacer) ; Doench 2 target, GAG PAM]” as the sequence, how does the activity (luciferase activity) (PAM GAG) read?
Answer: 186

Question: For “GGAGCCCACCGAGUACCUGG / GGAGCCCACCGAGTACCTGGGTG / CACCCAGGTACTCGGTGGGCTCC [Doench 2 sgRNA (spacer) ; Doench 2 target, GTG PAM]”, which activity (luciferase activity) (PAM GTG) is on record?
Answer: 120
